From the supplement of paper PMC7125110
± gives the standard error. Fewer inactive variants are shown than the library holds.

B1: glmS ribozyme (parent)
chain: AUAAAAGCGCCAGAACUACAGAAAUGUAGUUGACGAGGAGGAGGUUUAUCGAAUUUUCGGCGGAUGCCUCCAAA

Assays:
Conditions in all cases: with glucosamine-6-phosphate
glucosamine-6-phosphate [1] = variants of: B1; experiment: self-cleavage kobs at 40 uM GlcN6P; higher = faster cleavage; RNA array
Method in brief: (§1)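 Glucosamine-6-phosphate in HEPES/KCl/Mg(OAc)2 buffer, at 40 μM to 10 mM, was flowed over barcoded ribozyme variants transcribed in situ by E. coli RNA polymerase on sequenced MiSeq chips. Tracking was through a hybridised Cy3 probe at 37 °C. kobs, kcat and KM came from exponential decay fits and weighted Michaelis–Menten fits of normalised per-tile medians.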

glucosamine-6-phosphate [2] = variants of: B1; experiment: self-cleavage kobs at 2500 uM GlcN6P; higher = faster cleavage; RNA array
Method in brief: as §1

glucosamine-6-phosphate [3] = variants of: B1; experiment: self-cleavage kobs at 10000 uM GlcN6P; higher = faster cleavage; RNA array
Method in brief: as §1

glucosamine-6-phosphate [4] = variants of: B1; experiment: self-cleavage kobs at 160 uM GlcN6P; higher = faster cleavage; RNA array
Method in brief: as §1

glucosamine-6-phosphate [5] = variants of: B1; experiment: self-cleavage kobs at 640 uM GlcN6P; higher = faster cleavage; RNA array
Method in brief: as §1

| Variant | self-cleavage kobs at 40 uM GlcN6P (glucosamine-6-phosphate [1]) [s⁻¹] | self-cleavage kobs at 2500 uM GlcN6P (glucosamine-6-phosphate [2]) [s⁻¹] | self-cleavage kobs at 10000 uM GlcN6P (glucosamine-6-phosphate [3]) [s⁻¹] | self-cleavage kobs at 160 uM GlcN6P (glucosamine-6-phosphate [4]) [s⁻¹] | self-cleavage kobs at 640 uM GlcN6P (glucosamine-6-phosphate [5]) [s⁻¹] |
| --- | --- | --- | --- | --- | --- |
| C8A U47C C58G G66U | < 1e-05 | < 1e-05 | < 1e-05 |  |  |
| G32A A36C U45C C70U | < 1e-05 |  | < 1e-05 |  |  |
| C61A G62U | < 1e-05 |  | < 1e-05 | < 1e-05 | < 1e-05 |
| A6G G35A | < 1e-05 | < 1e-05 | < 1e-05 | < 1e-05 | < 1e-05 |
| C34G G51C | < 1e-05 |  | < 1e-05 |  | < 1e-05 |
| C10U G59C C68A | < 1e-05 |  | < 1e-05 |  |  |
| A6G G44U G62U G63A U69A | < 1e-05 | < 1e-05 | < 1e-05 | < 1e-05 | < 1e-05 |
| A18G | 0.00161 ± 0.00045 |  | 0.0231 ± 0.01 |  |  |
| C16A G38A | < 1e-05 |  |  |  |  |
| G9C G29U U69A | < 1e-05 | < 1e-05 | < 1e-05 | < 1e-05 | < 1e-05 |
| G13A G44A | < 1e-05 |  |  |  |  |
| C16U U47C | 7.47e-05 ± 1.5e-05 | 0.00165 ± 0.00046 | 0.00228 ± 0.00034 |  |  |
| G7U G37C C61A C68G C70U | 0.000181 ± 5.8e-05 |  | 9.36e-05 ± 2.7e-05 |  |  |
| G7U A48U G60C | < 1e-05 |  |  |  |  |
| U54C U56A | 0.000356 ± 6.9e-05 | 0.00483 ± 0.00092 | 0.0163 ± 0.0038 | 0.000584 ± 0.00011 | 0.00291 ± 0.00036 |
| C50G C61U A64G | 0.000244 ± 8.5e-05 |  | 4.62e-05 ± 1.7e-05 | 8.89e-05 ± 3.2e-05 | 0.000192 ± 8.3e-05 |
| U30G U47A | 0.000162 ± 3.5e-05 |  | 0.00566 ± 0.0013 |  |  |
| G43U C70G | < 1e-05 | < 1e-05 | < 1e-05 | < 1e-05 | < 1e-05 |
| C10A G41C | < 1e-05 | < 1e-05 | < 1e-05 | < 1e-05 | < 1e-05 |
| G9C G59C | < 1e-05 | < 1e-05 | < 1e-05 | < 1e-05 | < 1e-05 |
| C11U G32U U49A C71A | < 1e-05 |  |  |  |  |

| Variant | self-cleavage kobs at 40 uM GlcN6P (glucosamine-6-phosphate [1]) [s⁻¹] | self-cleavage kobs at 2500 uM GlcN6P (glucosamine-6-phosphate [2]) [s⁻¹] | self-cleavage kobs at 10000 uM GlcN6P (glucosamine-6-phosphate [3]) [s⁻¹] | self-cleavage kobs at 160 uM GlcN6P (glucosamine-6-phosphate [4]) [s⁻¹] | self-cleavage kobs at 640 uM GlcN6P (glucosamine-6-phosphate [5]) [s⁻¹] |
| --- | --- | --- | --- | --- | --- |
| G9A G41U U56G | < 1e-05 |  | < 1e-05 | < 1e-05 | < 1e-05 |
| G38U G40U | < 1e-05 |  | < 1e-05 |  |  |
| U30A C70U | 0.000214 ± 3.6e-05 | 0.00125 ± 0.00027 | 0.00358 ± 0.00063 | 0.000386 ± 7.4e-05 | 0.000765 ± 0.00011 |
| C11U G13A | < 1e-05 | 3.03e-05 ± 1.4e-05 | 6.97e-05 ± 1.7e-05 |  |  |
| A6C G13C G29U C70G | < 1e-05 |  |  |  |  |
| A6C A15C U54C C71U | < 1e-05 |  |  |  |  |
| U65G C67A | 7.27e-05 ± 1.2e-05 | 0.00133 ± 0.0004 | 0.00417 ± 0.0006 | 0.000116 ± 1.9e-05 | 0.000435 ± 6.7e-05 |
| G9A G62U | < 1e-05 | < 1e-05 |  | < 1e-05 |  |
| A6C A12U U30A A48C | < 1e-05 |  | < 1e-05 |  |  |
| C50G G59U C67G | 0.000108 ± 1.9e-05 | 0.000245 ± 5.2e-05 | 5.5e-05 ± 1.5e-05 |  |  |
| C16G G59U | < 1e-05 | < 1e-05 |  |  | < 1e-05 |
| G13A G62A | < 1e-05 | < 1e-05 | < 1e-05 | < 1e-05 | < 1e-05 |
| C10U A15U G43A A52G | < 1e-05 |  | < 1e-05 |  |  |
| G32A G59C | < 1e-05 | < 1e-05 |  | < 1e-05 | < 1e-05 |
| C10G U54G | < 1e-05 | < 1e-05 |  | < 1e-05 | < 1e-05 |
| U55A C67A | 0.000444 ± 0.00015 |  | 0.00563 ± 0.0018 |  | 0.00115 ± 0.00052 |
| C34U G35U | < 1e-05 | < 1e-05 | < 1e-05 | < 1e-05 | < 1e-05 |
| G51U A53C | < 1e-05 |  |  | < 1e-05 | < 1e-05 |
| A6C C8U A14G | < 1e-05 |  | < 1e-05 |  |  |
| G21U C67G | 9.41e-05 ± 2.8e-05 | 0.000139 ± 4.1e-05 | 0.00119 ± 0.00023 |  |  |
